Test results: IntAct's records for PubMed 8114715
Each block holds one substance with its values, some of them ahead of it.

Legend:
lck_human LCK [1] = target: lck_human LCK (UniProt P06239)
lck_human LCK [2] = target: lck_human LCK (UniProt P06239); remark: listed apart in the source
lck_human LCK [3] = target: lck_human LCK (UniProt P06239); remark: listed apart in the source

lck_human LCK, sequence (P06239 whole entry, looked up): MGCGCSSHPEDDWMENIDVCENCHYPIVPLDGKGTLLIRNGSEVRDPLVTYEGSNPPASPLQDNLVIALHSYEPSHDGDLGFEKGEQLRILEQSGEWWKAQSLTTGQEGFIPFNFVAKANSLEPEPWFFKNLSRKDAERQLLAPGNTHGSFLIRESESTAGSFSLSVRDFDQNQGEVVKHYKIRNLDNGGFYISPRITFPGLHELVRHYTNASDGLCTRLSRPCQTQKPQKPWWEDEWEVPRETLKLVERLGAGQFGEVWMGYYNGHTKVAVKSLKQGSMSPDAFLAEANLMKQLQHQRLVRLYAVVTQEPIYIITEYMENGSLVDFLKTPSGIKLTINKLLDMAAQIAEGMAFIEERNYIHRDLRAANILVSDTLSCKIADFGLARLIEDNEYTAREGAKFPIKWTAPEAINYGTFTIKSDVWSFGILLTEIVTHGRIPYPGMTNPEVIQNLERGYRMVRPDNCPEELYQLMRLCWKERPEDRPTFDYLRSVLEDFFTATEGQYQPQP
Tyrosine-protein phosphatase non-receptor type 6 (Homo sapiens), P29350 Y541F, sequence (P29350 whole entry Y541F): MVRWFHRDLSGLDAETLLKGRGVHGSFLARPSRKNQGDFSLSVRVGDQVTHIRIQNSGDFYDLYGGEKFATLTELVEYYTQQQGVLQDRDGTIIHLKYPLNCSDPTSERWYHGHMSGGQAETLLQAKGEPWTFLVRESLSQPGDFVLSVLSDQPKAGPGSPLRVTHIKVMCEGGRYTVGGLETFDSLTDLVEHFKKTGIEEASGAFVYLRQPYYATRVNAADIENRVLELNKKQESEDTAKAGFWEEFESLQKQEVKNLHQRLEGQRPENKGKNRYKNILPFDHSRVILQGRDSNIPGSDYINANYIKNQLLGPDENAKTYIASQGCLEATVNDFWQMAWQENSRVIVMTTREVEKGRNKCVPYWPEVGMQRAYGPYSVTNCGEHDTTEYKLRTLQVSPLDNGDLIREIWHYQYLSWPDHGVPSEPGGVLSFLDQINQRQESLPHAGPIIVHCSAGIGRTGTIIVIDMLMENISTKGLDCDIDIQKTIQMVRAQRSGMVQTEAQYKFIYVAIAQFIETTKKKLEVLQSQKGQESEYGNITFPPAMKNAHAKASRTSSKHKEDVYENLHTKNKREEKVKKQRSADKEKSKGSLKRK
Tyrosine-protein phosphatase non-receptor type 6 (Homo sapiens), P29350 Y536F, sequence (P29350 whole entry Y536F): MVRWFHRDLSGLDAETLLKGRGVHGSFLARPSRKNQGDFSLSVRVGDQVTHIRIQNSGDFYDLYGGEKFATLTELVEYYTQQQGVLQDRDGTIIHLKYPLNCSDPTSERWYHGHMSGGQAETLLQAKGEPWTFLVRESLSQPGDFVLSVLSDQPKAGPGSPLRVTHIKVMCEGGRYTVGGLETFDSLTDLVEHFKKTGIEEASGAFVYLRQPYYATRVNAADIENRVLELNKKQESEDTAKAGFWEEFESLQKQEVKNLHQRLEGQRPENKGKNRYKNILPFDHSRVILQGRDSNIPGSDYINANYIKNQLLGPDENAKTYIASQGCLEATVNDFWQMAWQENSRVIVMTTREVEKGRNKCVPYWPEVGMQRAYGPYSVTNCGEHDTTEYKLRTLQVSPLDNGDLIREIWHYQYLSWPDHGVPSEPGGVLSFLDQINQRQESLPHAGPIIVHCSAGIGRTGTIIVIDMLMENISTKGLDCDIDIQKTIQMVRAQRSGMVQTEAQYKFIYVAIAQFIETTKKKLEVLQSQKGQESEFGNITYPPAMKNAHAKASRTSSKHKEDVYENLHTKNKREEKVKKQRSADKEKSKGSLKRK
Tyrosine-protein phosphatase non-receptor type 6 (Homo sapiens), P29350 Y564F, sequence (P29350 whole entry Y564F): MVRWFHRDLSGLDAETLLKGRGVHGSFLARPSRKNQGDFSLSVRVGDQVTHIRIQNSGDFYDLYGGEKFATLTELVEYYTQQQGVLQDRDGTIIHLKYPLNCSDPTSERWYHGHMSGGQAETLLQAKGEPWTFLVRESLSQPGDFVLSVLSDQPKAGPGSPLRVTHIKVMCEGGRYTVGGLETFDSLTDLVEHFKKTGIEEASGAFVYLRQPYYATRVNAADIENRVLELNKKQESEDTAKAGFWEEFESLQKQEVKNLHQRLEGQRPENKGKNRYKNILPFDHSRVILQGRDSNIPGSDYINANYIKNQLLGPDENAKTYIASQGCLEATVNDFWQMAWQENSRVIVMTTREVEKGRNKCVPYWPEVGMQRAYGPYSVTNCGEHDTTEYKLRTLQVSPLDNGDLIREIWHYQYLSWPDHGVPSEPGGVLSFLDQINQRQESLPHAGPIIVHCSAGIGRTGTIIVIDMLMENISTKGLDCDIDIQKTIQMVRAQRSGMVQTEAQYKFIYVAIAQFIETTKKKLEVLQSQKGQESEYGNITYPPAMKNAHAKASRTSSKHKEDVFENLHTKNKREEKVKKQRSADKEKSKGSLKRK

effect of a mutation on the interaction (lck_human LCK [1]): decreasing interaction
Substance: Tyrosine-protein phosphatase non-receptor type 6 (Homo sapiens), P29350 Y536F

effect of a mutation on the interaction (lck_human LCK [2]): decreasing interaction
Substance: Tyrosine-protein phosphatase non-receptor type 6 (Homo sapiens), P29350 Y564F

effect of a mutation on the interaction (lck_human LCK [3]): decreasing interaction
Substance: Tyrosine-protein phosphatase non-receptor type 6 (Homo sapiens), P29350 Y541F
